Reference: the domain aggregation screens of Martell et al. (2025)

assay: soluble fraction after stress (log2 fold change); higher = more stays soluble; pooled small domains, quantitative proteomics; details: stress: 75 degC
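Note: 20 min heating vs room temperature control held 20 min.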

Sequence	soluble fraction (log2)
HMDLYIILGLERSATLSDVRRAYRRLARKYHPGINPGDRNSASVFTRVSEAYQVLSDPEQRRRYDSR	-2.84
HMDMDRRALLLALINDRYHASVAEFARAINKAPAQVHQWLSGNRALGNAGARDIEIRLNLAQGYFDH	-2.16
HMDMQMPIMNGLEFLERINLTLDDNFSIIVLTGKIEDKSIEKSFELGINAYLRKPFNIYALLGIVRQN	-0.135
HMDMSDFEVVRDMYLTGKVWNAGDIVEAKGITGEVVRKGTNYLSFVDKNGKVHKAWLHEIEL	-0.197
HMDNAILQELYDYYKEDPSLSQSELIISMLTRIQEAVGYVSKDVQEEVARLAGVNRGYVAAIIKNLPHL	-1.17
HMDNEYDKVYQAALSKLEGYPRSSITTAVIKDVVAQTIKYFEIKNFGYEDTIINQLQSAFTVKSSS	-0.0883
HMDNLSESQIKAYSSILSRTHEISDLAENKDYLAFSLWIANILRDPQSVREETAKRVFSALHTNTDFK	-0.984
HMDNMFMPPVNGWDVRQALQKLQNEMGLQVKMEYSPSETITEGYVISYTPIDGMKVEKGDEVTLVISTGPE	-0.0359
HMDNMTEMQKAVTALIEKSGGSIDNLSVIYDHLKKKYPSFDLKDYGYSRFSSFLRSMENIMVRGNAVTLRS	-0.211
HMDNPPDRAEIEQMLKDAGLTPEADAMAALSDLARTLDPGDFRQTLEKITLYKLGDSTPIGLDDIAAGAP	0.0465
HMDNQSIVRINDGDGAWRQRLGEHFGHLPRDRKRGEIVLQVDAADWRWLQTQGYAPRFDAALSAQLQTTL	-0.479
HMDNVLGKSGKVIFVNEEINSYGRAFIPGHGEWNIRTKSDQNIHINDGIKVIERDGITLVVEL	-1.26
HMDNVQLRNFAIKATEASIIYLDQEQRNFFWYNNNKKLMTVPFDENPYSAFAAYLKTDEGSEVYKAIEKKF	-1.97
HMDNWAALLSEREVQVSRLVANGASNKEIADHLAITERTVKAHLTAVFEKLGVRDRLQLSLRVNGL	-3.94
HMDPALSPAEQKIWDLLAAGETHIDDLVRASGLPVATVNSALVMMEMKEVISQVAAKTYRRNRRN	-1.3
HMDPEARRRAILNAAIDVIVEKGAAALTHRAVAARAGVSLGSTTKYFSSIEDLRENAMDALVREMD	-0.496
HMDPEEQIQSREIWEAVERALDGMQEKGRRVVIALLEGQTQLEVSRAAGISQPLISYYLKSFRTKVRTELG	-0.73
HMDPEIADAVNTIKKYLESHYSEVITRKKIEELVHLNQDHINREFKKQTGYTLMEYVQHYRILMAKKMLRV	-0.576
HMDPEQLKIAINTKMPFGKYSGRPLLLLPEPYLVWFKQQGFPDSKLGSQLAMMYEVKLNGLEQMLMPLL	-0.665
HMDPERLDQLQNPDPAVRREAIIALGRSKDLAALPELAKVYKNDPVPELRELARQAGRYIQQENRP	0.00398
HMDPFVILGISKDSSQSEILEAYKTKRAYYQEHVFDEGDQGAQAARMLGQLDDAYQQAMELSHE	0.0281
HMDPKISWESDEKLSANIGHYENSIKPLMGNKYLIELSQLKDKIESHPWVARATIKRIFWNKIHIQLESHD	-0.0642
HMDPKWSHVRRLLDDENPIVRKALTEELIRSPEEGLAFLEQVIREPDHLLAKHAHNLLSELGWV	0.192

Sequence	soluble fraction (log2)
HMDPLGHVIKKKRLQLGMTLRDLAAKAGVHHATIDRIETDQFKVVDPSTLVKIAEALHLDQLYLLSLN	-0.666
HMDPLPDEVQEVIDMVDGFKAMDELSEADKADVKAAYDAYNALSAEHKAMVPEHIVTFLNRAYDKLFD	0.159
HMDPPVDLTPREQQVLSRIALGMSDKAIAAELGVSHQTVRNHVARIYAKIKVHSRSQAIVWAREKGIP	-2.36
HMDPSKMKIDELEIATRTATALADGGIKSVAGLIRKSASALKELDGVGDKAIAEITEALEKLGLELKG	0.106
HMDPSWVPVFNNLRDAILSHQLLPGTRLAEDELSNIYGLGRTVIRSALGALTHEGLLTHIPNRGVHVAKP	-1.16
HMDPTIAAIRKKLKNWTIVEVHMTREELEQAVIDGKVDVFLSSAGFYRRLVRFGARDLATAMSPAYPD	-0.68
HMDPTYYFNLYPNPSKDEVSLFTNFTGKINIEILDLAGKSILSDNPISTISLVSLKEGLYLVKVKS	-0.178
HMDPYLSGLLQKLAETDKKISFTRLRSEDLDGESREAIYEFIEKYSGRFGVRWLLNEFGLSPSVYYNYLHS	-0.727
HMDQDLGFLINKYFELGKDYNTLVEIYEKIKEYIASIDKKMLEYTKNFTIEQLKKWLDDGTINNIILTLG	-0.122
HMDQEDAYMQVRQVFDTLLVSELSKRIFAWRFFEGKSFAEWPGAESQKFLYDTFNRILLIISAKIRRKNA	-0.0464
HMDQHERQQLLIHIAGGEREALAELYQRTRSAVYGLALSYLKNAHDAQDLTRDVYVQVWDRA	-0.0158
HMDQQTKFKTALAALAASAETKDRKLTKADVKEFLEDMDLGEEQMKLVYAYLASKHIHVEGAE	≥ 1.04
HMDQSIDADIINLNFSKNIIKIEENVYYKNNNAKVNADKIEINIETKKLKISMNEQEDEVEIFAK	0.552
HMDQTIFFGQQKAINNLSTDAGLSATELDEYLKKRYKRPLYQLTQAEGAEIIKGFQDGALSRSSILDYTK	0.0434
HMDRKFFFNEQYEDYINSDLKVKFMNDSGSKKSFQGELTKVTPSDLFLESEKESVKVPFSSIIQANLI	-0.197
HMDRLTISTLGNGLFRVNGAEAEATVYNLSGNVVKVVPADEVIDLSSLAKGVYIIHVDGEAFKVI	-1.13
HMDRMFQPETWSKIYQWVMNDPQVPDKEDVLALIRRHFGNFEKLIKLLHYLDGGKPYAYLSEH	-0.473
HMDRSLYVGDAVGFDSARGLMEIEVKNKFSVVAVSLKKKPSGNFITPLLRMEKKKGEAVTVAPGSGHR	-0.514
HMDRSQRDQEQAQLIRLVQQAFDDSGQRYGAEKIRITLAEGGIRVSTKRIAAIMQELDLRSI	-2.41
HMDRSRAEIDLGHVETAIRTLAEGGMVQEYAIGGRSLKRYKMGELLQLKAELENEINMERRKEKMRQ	0.212
HMDRVDGWLHDGKLYLRVVDYKTGKKSFDLAELRYGLGLQMLLYLFTLKEEGQMLFGGHEIVPAGVL	-0.514
HMDRVSEITLTRLRDYAADGQVRTATLTHRTNVVTGTLRDGRRFSAGVPPMYGDELTTFLLDNGVRVDSDN	-0.41
HMDSDMGQQLKTLLTVGTFMSSKELKAIAQQLGLKKPTDLKEWVELESGTQRIEGKPTKGYWIKMNDINN	-0.367

Sequence	soluble fraction (log2)
HMDSGINVWASAEGLTITADKDTTVYVYDIYGRTIHTSEVKAGTSDIAINTKGIVIVKANGYTKKII	-1.77
HMDSILSIVGGEESYKALLAWAENNISQQELQQLETILKSGNVPAIKRVLVTLMNRFNQAQS	-0.114
HMDSINGEASISRELHGTRFDQAAAILFPEFSRSRLQAWIGAGALTLDGQTARAKDKVTQGQHLVLAAAVE	-0.54
HMDSINIDEETAKLGPNAPQIIDGIKKWGQGLVAKGVWSDEDFDEFKVFAATSSGINALNKIRKYY	0.188
HMDSKYLRIFSTLIDEMEKMSPGEQLQSERELSQRFQVSPMTVRRALHKLSTEGYTSAIPGKGTFVRK	-0.707
HMDSLELADEVGRVSEALQELRPHQREVLELSLVHGRSHQQISEKTGLALGTVKSHARRGLMRVREMLGV	-0.381
HMDSLIEYENERSLRRLINENLSDYERTVWWLYYAGADAAHIAEQTGRSKRSAENAITRVRRKLRALITQS	-1.33
HMDSNISVSEALEMVDKGSVKEIIVEGEKLYITNQDGKQYTSSKEVGVSLIELMKDSGIDPIKSDVNIIVK	0.463
HMDSRVRHAVLTTLLGKRIVDDLVEKGELPGTPLVLATAPGLDRDLEQLIAQRVVTALLTTV	-0.0018
HMDSSALEPIVDQIIADNPKQVEQFQAGKTKVLGFFVGQVMKQTDGTANPKQVNELVAARLKSA	0.0418
HMDSTDSIIHYVRAHRSLEVKNLSFAEARFKKVVELEPNFARGWLGLGEVSILKNNFENASIYLDKALE	-0.282
HMDSTLTNEIYNELYRAITHQELKPGQNLTLTMLKKQFNVSHTPIREALTRLSADGLVTYHPNKGMKVT	-0.444
HMDSTTHALALVRTLPRDQAEAVLLRVVADLDYADVAEIMGRSPGAVRVLVHRGLRRLEQELATRRT	-0.574
HMDSVEYRVITGDDVNFRKGPSTDYASLGKLNKGYKVEYISETNSWSKVKYNGQTGYVYSKYVAQT	-0.155
HMDSVTVPDISGYSPKAAEDSINNAGLKINEQGLSGSGDGQVVERTSPSAGSKVKKGDSVTVYYSKA	0.0423
HMDTDVFLMDLRGESRDYAEEVLINNNLEVKVIILPFSKRHYPGKVVEMRPSPFTKVKKGRIITLSVAGN	-3.73
HMDTDWDVSGVTPDQYRLLFSVLGGLAGVKDVGLNPDGLRIIHTPEALPSIEKAFQANGLKLKRNVD	-0.0943
HMDTETLIDKYQLNASEAAVLRFMDKNRDSLRDLGIRDVARASYVSTATIVNMAKKIGYSGYSELVFAYGS	-3.69
HMDTFSVAIGTKTPDGSSVGEVKTISRDELLLLEDEVAEDPTKEIIFTGGTKDSAQAALDGWIDYNTNLAS	0.0395
HMDTFYKNLSKKIKTIREKLSFSQEALAKELGISRVAISQIENGDRKISAEEIAKLSRVFNVPTDILLN	-0.281
HMDTHDVQVPQEGQGLRLDLFLTDHIEGSRSFIQTIIKDGHVILNGKKAKANSRLNEGDYVVWSIPKPE	-0.288
HMDTHRLNYSDFVAEVQAQRVSKVVIDGYTIVGQRTNGETFETVRPALQDPKLVDDLLQNNVIIEGKQPE	-0.0116
HMDTIVHFLSDGRRITVRIKRNARKNIILRPMAADAVSATIPPWLGRRQLSAWLSEREDLLLSVLSRAA	-3.34
